The values that follow come from patent publication US20230002481A1 (Chugai, published 2023).

The target of the test is T1, recombinant cyno C1r2s2 His/Flag tetramer (cynomolgus monkey, limits assumed).
T1 construct: Heterotetramer of two C1r-His and two C1s-Flag chains, co-expressed in FreeStyle293-F cells; also called cyno C1r2s2s
T1 chain 1: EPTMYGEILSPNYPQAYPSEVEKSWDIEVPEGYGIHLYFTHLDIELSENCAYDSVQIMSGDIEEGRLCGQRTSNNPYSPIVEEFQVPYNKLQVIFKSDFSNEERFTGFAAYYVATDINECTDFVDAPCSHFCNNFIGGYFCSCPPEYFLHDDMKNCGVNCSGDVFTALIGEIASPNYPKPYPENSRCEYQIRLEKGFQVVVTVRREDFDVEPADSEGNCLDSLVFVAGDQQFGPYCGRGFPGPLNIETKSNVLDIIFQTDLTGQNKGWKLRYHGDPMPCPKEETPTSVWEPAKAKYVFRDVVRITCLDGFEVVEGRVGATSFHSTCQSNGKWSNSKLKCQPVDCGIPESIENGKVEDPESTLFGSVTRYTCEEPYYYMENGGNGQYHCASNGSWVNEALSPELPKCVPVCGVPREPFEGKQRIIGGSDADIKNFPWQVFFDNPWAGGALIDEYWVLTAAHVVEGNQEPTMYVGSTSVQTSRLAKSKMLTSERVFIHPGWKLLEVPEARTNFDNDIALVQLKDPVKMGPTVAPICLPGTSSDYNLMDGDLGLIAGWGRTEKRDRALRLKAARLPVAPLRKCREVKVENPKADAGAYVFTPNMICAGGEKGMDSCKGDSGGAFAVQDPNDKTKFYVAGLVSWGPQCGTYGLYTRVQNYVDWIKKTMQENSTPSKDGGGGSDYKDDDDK
T1 chain 2: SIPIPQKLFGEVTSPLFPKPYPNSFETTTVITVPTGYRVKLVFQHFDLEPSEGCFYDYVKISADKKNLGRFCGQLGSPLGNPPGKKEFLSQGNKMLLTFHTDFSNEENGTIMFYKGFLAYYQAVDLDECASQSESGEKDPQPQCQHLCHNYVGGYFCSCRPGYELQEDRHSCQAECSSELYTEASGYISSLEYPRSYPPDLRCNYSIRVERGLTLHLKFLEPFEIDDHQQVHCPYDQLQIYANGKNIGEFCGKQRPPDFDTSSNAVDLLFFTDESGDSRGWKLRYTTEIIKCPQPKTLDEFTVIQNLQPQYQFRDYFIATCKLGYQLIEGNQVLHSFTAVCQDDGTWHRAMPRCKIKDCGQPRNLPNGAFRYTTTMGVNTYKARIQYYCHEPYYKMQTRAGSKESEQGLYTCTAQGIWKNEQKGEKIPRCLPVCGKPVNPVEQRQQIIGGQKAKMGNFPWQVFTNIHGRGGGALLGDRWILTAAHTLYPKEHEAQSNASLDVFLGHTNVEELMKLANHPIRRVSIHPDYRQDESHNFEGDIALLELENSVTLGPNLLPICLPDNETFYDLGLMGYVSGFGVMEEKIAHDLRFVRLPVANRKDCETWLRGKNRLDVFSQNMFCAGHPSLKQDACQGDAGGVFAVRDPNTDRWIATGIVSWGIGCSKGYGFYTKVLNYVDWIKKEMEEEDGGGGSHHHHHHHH
Put plainly: SPR (Biacore), pH5.8*: dissociation at pH5.8 after association and dissociation at pH7.4, 37 C, Scrubber fit. Here is the method: The kinetic parameters of anti-C1s antibodies against recombinant human C1s (as described in PCT/JP2018/042054), human C1r2s2, and cyno C1r2s2 His/Flag (also referred as cyno C1r2s2 in the Table and Figures) were assessed at pH7.4 and pH5.8, at 37 degrees C. using BIACORE (registered trademark) T200 instrument (GE Healthcare) or BIACORE 4000 (GE Healthcare). ProAG (Pierce) was immobilized onto a CM4 sensorchip using amine coupling kit (GE Healthcare) according to the recommended settings by GE Healthcare. Antibodies and analytes were diluted into the respective running buffers, ACES pH7.4 and pH5.8 (20 mM ACES, 150 mM NaCl, 1.2 mM CaCl₂, 1 mg/ml BSA, 1 mg/ml CMD, 0.05% Tween 20, 0.005 w/v % NaN₃). Each antibody was captured onto the sensor surface by ProA/G. Antibody capture levels were typically 100-200 resonance units (RU). Then, recombinant C1s was injected at concentrations of 25 and 50 nM followed by dissociation at pH7.4 and pH5.8. The surface was regenerated using 10 mM Glycine-HCl, pH1.5. Kinetic parameters at neutral pH conditions and acidic conditions were determined by fitting the sensorgrams with 1:1 binding model using BIACORE (registered trademark) T200 Evaluation software, version 2.0 (GE Healthcare) or BIACORE 4000 Evaluation software. The dissociation rate at pH5.8 (after dissociation at pH7.4, indicated as pH5.8* in TABLE 2) was determined by processing and fitting data using Scrubber 2.0 (BioLogic Software) curve fitting software. The association rate (ka), dissociation rate (kd), binding affinity (KD) at pH7.4 and pH5.8 condition, and dissociation rate (kd) at pH5.8* condition of the antibodies are listed in TABLE 2. Some kinetic parameters of COS0098pHv1 in acidic condition were not correctly calculated because of its weak binding response.
Also, to observe the cross-reactivity of anti-C1s antibodies against human C1r2s2 and cyno C1r2s2 (cyno C1r2s2 His/Flag), BIACORE (registered trademark) kinetics analysis was performed.

B1: COS0098pHv1 (antibody, V domains shown)
VH: QVQLVQSGAEVKKPGSSVKVSCKASGHTFSKYTVSWIRQPPGKGLEWIGIINTGGSAYPATWAKGRVTITADESTSTAYMELSSLRSEDTAVYYCARGAGDTDYTNLWGQGTLVTVSS
VL: DIQMTQSPSSLSASVGDRVTITCQASENIYSALAWYQQKPGQPPKLLIYGASQLESGVPSRFSGSGSGTDFTLTISSLQPEDFATYYCQQYYFTSHTFGQGTKVEIK
notes: Humanized, optimized pH-dependent variant of COS0098bb
Turning to B1, the off-rate (koff) is 0.0618 s⁻¹.

B2: COS0098bb (antibody, V domains shown)
VH: QSVEESGGRLVTPGTPLTLTCTVSGFSLTKYTVSWVRQAPGKGLEWIGIINTGGSAYYATWAKGRFTFSKTSTTVDLQITSPTTEDTATYFCARGNGDTDYTNLWGPGTLVTVSS
VL: QVLTQTPSSVSEPVGGTVTINCQASENIYSALAWYQQKPGQPPKLLIYGASNLESGVPSRFKGSGSGTQFTLTISDLECADAATYYCQQYYFTSSTFGGGTKVEIK
notes: Anti-C1s rabbit antibody, parent of COS0098pHv1; the antibody was captured by ProA/G; also called anti-C1s antibody COS0098bb
B2: the koff stood at 0.000926 s⁻¹.

Usually koff stands for a measure of how fast the partners let go of each other.
